Usually % Inhibition stands for the relative decrease from the control value, in per cent.

The text below walks through data of patent publication US20100015637A1 (AbbVie / Abbott, published 2010).

The target in this test is human PlGF-1 comprising amino acids 1-137 produced in human embryonic kidney cells (human) (UniProt P49763). Nature of the test: Format 1 …, capture 2-826-335, detection 1-255-713; sFlt-1 3067 pmol/L (ratio 100).

For the substance “native sFlt-1, isolated from human placental tissue (from UniProt P17948 27-687) (receptor)”, the % Inhibition turned out to be 94.1% and the PlGF-1 Measured was 60.3 pg/mL.
